The source of these data is PMC2864300, “Regulation of NOXO1 Activity through Reversible Interactions with p22^phox and NOXA1” (PLoS ONE, 2010).

In experiment [1] the target is mouse NOXO1 tandem SH3 domains (SH3AB) (mouse). Nature of the experiment: ITC; MicroCal VP-ITC, 18°C; 150 mM NaCl, 1 mM DTT, 50 mM HEPES pH 7.4; typically 20–40 µM protein in the cell, 200–300 µM ligand injected; single-site binding model; averaged over three to five experiments. A general note: In ITC the heat of successive injections is recorded.
For experiment [2], the target named is p22phox cytoplasmic domain (Homo sapiens) (UniProt P13498). To be noted: cited from earlier work.
Experiment [3] addresses human NOXO1 SH3AB–E triple mutant (proline residues 323, 326 and 329 to alanine) (human). Kind of experiment: ITC; MicroCal VP-ITC, 18°C; 150 mM NaCl, 1 mM DTT, 50 mM HEPES pH 7.4; typically 20–40 µM protein in the cell, 200–300 µM ligand injected; single-site binding model; averaged over three to five experiments.
Experiment [4] concerns the target human NOXO1 tandem SH3 domains (SH3AB) (human). Described as above.
The target in experiment [5] is human NOXO1 SH3AB–E (tandem SH3 domains plus the C-terminal portion of NOXO1) (human). Described as above.
Experiment [6] deals with p67phox C-terminal SH3 (Homo sapiens) (UniProt P19878). To be noted: cited from earlier work.

For orientation: Kd means the free concentration of one partner at which half of the binding sites on the other are occupied at equilibrium, for simple one-to-one binding.

Sequence of p47phox C-terminal proline-rich region (P14598 359-390): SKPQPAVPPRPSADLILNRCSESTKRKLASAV
Sequence of p47phox tandem SH3 (P14598 156-285): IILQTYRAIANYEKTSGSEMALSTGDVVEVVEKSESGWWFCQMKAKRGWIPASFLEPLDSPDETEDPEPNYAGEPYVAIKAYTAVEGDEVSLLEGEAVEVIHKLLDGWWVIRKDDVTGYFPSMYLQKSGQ
Sequence of p22phox cytoplasmic domain (Homo sapiens) (P13498 132-195): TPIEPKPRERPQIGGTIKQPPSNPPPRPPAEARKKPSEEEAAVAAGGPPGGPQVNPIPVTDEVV
Sequence of p67phox C-terminal SH3 (Homo sapiens) (P19878 457-516): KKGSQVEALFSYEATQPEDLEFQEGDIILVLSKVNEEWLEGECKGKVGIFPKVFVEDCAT

For the substance “mouse p22^phox cytoplasmic domain (p22^phoxC) (from UniProt Q61462 127-192) (domain or fragment)”, in experiment [1], the Kd was found to be 68 nM and the dH was -12.9 kcal/mol.

For the substance “p47phox tandem SH3 (from UniProt P14598)”, in experiment [2], the Kd is 190 nM.

With “human p22^phox cytoplasmic domain (p22^phoxC) (domain or fragment)”, the Kd in experiment [3] was found to be 530 nM; in experiment [4], 150 nM. Besides, the dH in experiment [3] is -8.1 kcal/mol; in experiment [4], -16.8 kcal/mol; in experiment [5], -3.2 kcal/mol.

With “p47phox C-terminal proline-rich region (from UniProt P14598)”, the Kd in experiment [6] was 20 nM.
